Biological target: the molecule itself
Test: native MS; crude bovine lens cortex or nucleus membrane preparation, solubilised in 1% OG, exchanged into 200 mM ammonium acetate, 2x CMC C8E4; static nanospray, Q Exactive UHMR; HCD at 200 V fragmented the tetramer mainly into monomers

B1: Aquaporin-0 (natural protein, bovine, UniProt P06624 1-263, looked up)
chain: MWELRSASFWRAICAEFFASLFYVFFGLGASLRWAPGPLHVLQVALAFGLALATLVQAVGHISGAHVNPAVTFAFLVGSQMSLLRAICYMVAQLLGAVAGAAVLYSVTPPAVRGNLALNTLHPGVSVGQATIVEIFLTLQFVLCIFATYDERRNGRLGSVALAVGFSLTLGHLFGMYYTGAGMNPARSFAPAILTRNFTNHWVYWVGPVIGAGLGSLLYDFLLFPRLKSVSERLSILKGSRPSESNGQPEVTGEPVELKTQAL
notes: Aquaporin-0 (AQP0), bovine lens; the most abundant species is full-length AQP0, tetramer average mass 112,898 Da; Lower-abundance singly and doubly phosphorylated tetramers were also detected; Samples were in 200 mM ammonium acetate with 2x CMC C8E4 (residual OG possible); also called AQP0; crude AQP0; source: endogenous, bovine lens cortex and nucleus: crude urea-washed membrane pellets …
  stoichiometry N: 4
